In US20230049732A1 (UNIVERSITY OF LOUISVILLE RESEARCH FOUNDATION, published 2023):

Assays:
Assay in all cases: ELISA, VLPs coated
[1] = target: T1, VLPs of B19V genotype 3 (V9 strain VP2) (parvovirus B19 genotype 3, UniProt P07299 228-781)
T1 construct: Intact VLPs of non-mutated VP2
T1 chain: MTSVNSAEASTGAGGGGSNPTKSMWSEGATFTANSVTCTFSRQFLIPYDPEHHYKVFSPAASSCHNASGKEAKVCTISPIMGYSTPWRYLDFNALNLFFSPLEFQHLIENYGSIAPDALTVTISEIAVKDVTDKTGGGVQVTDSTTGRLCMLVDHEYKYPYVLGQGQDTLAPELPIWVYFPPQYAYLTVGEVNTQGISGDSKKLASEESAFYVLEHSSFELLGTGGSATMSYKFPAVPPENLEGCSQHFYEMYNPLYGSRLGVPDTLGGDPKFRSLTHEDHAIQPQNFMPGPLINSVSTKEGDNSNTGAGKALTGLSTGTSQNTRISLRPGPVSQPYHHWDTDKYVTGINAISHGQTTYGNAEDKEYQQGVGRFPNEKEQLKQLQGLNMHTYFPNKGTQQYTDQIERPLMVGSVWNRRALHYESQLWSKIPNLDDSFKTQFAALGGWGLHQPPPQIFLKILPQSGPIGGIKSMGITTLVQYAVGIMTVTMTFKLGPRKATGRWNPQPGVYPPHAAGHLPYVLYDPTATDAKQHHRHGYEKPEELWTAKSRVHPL
Procedure: (§1) First, 96-well ELISA plates (Immunolon 2; Dynatech) were coated, either 1 h at 37° C. or overnight at 4° C., with 250 to 500 ng per well of B19V VLPs. Intact VLPs were re-suspended in PBS, and the disrupted VLPs were re-suspended in the following solution: 0.2 M NaCO₃, 0.01 M dithiothreitol, pH 7.0, to detect sequential epitopes. The plates were washed three times with PBS, then saturated with bovine albumin via PBS containing 5% bovine serum albumin (5% PBSA) for 1 h at 37° C. After washing three times, plates were then incubated with primary antibodies. Primary antibodies used were rabbit sera (at 1/1000), mouse sera (1/100 dilution) to B19V VLPs, or supernatant of hybridoma cells without dilution for 1 h at 37° C. Thereafter, plates were washed thrice with PBS, then incubated with alkaline phosphatase-conjugated secondary antibodies, with either goat anti-mouse or anti-rabbit IgG (H+L) (Sigma, USA) at a dilution of 1:5000 for 1 h at 37° C. After washing with PBS, bound antibodies were detected with an alkaline phosphatase chromogenic substrate (Phosphatase substrate, Sigma, USA), and absorption was measured at 405 nm. One percent PBSA and sera collected from pre-immune animals were used as negative controls. Human papillomavirus (HPV) and mouse parvovirus (MPV) VLPs were used to check the cross-reactivity of primary antibodies with other types of VLPs. All antibodies were diluted in 1% PBSA.

[2] = target: T2, VLPs of B19V genotype 2 (Lali strain VP2) (parvovirus B19 genotype 2, UniProt P07299 228-781)
T2 construct: Intact VLPs of non-mutated VP2
T2 chain: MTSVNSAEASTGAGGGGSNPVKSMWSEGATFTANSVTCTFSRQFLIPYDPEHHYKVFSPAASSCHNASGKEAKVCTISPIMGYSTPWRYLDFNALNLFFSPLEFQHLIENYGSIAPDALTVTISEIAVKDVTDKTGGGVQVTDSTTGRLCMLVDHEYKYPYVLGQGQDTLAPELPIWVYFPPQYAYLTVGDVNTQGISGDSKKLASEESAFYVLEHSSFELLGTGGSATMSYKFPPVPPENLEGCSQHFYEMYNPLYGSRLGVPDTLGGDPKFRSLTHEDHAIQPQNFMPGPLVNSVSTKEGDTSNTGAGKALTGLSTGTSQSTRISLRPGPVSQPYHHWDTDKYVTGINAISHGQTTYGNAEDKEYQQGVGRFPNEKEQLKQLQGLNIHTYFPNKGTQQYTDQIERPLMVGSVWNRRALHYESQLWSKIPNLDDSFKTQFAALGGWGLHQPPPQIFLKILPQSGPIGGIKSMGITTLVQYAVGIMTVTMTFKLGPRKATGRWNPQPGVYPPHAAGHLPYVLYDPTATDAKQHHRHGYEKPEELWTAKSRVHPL
Procedure: as §1

[3] = target: T3, wtVLPs of parvovirus B19 genotype 1 (VP2 only) (parvovirus B19 genotype 1, UniProt P07299 228-781)
T3 construct: Intact virus-like particles self-assembled from VP2 alone, made in Sf9 cells with baculovirus; also called B19V genotype 1; Prototype Q399QYTDQ404
T3 sequence: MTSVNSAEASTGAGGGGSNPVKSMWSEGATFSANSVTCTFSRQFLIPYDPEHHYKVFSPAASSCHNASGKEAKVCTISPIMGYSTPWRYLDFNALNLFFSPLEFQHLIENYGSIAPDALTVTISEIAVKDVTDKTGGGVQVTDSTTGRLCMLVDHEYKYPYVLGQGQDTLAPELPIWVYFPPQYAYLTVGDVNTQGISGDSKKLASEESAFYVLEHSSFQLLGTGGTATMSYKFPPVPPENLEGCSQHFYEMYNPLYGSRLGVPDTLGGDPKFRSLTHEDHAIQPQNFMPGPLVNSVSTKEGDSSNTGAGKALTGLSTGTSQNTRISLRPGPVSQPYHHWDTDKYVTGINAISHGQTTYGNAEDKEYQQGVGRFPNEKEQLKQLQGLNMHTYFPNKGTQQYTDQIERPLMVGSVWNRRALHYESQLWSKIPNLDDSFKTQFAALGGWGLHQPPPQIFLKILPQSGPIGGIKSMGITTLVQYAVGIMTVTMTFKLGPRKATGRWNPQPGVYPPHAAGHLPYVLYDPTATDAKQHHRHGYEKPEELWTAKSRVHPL
Procedure: as §1

HPV16 VLPs = target: T4, HPV16 VLPs (human papillomavirus type 16, UniProt P03101 1-505)
T4 construct: Specificity control; also called human papillomavirus VLPs
T4 sequence: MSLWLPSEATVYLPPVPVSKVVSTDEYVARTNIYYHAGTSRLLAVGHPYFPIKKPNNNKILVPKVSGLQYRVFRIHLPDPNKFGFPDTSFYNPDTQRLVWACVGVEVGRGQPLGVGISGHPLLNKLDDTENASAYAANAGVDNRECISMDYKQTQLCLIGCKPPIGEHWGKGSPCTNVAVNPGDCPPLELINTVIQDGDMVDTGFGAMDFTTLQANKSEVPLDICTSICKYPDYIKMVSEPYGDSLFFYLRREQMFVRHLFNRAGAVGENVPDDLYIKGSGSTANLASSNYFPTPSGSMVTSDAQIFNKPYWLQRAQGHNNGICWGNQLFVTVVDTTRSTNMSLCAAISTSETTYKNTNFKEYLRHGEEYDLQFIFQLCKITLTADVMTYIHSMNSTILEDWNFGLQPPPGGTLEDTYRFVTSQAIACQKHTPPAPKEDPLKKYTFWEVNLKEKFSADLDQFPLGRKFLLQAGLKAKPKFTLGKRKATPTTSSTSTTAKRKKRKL

| Binder | ELISA absorbance (405 nm) [1] | ELISA absorbance (405 nm) [2] | ELISA absorbance (405 nm) [3] | binding result (HPV16 VLPs) |
| --- | --- | --- | --- | --- |
| MAb #25 (antibody, V domains shown, Murine hybridoma antibody, supernatant; also called antibody 25) VH: QVQLQQPGAELVRPGASVKLSCKASGYTFTNYWMHWVKQRPEQGLEWIGRIDPYDSETHYNQKFKDKAILTVDTSSNTAYMQLSSLTSEDSAVYYCTSYYYGSNYVWHFDVWGAGTTVTVSS VL: not shown | 2.65 | 2.54 | 2.67 | no binding |
| MAb #91 (antibody, V domains shown, Murine hybridoma antibody, supernatant; also called antibody 91) VH: EVQLQQSGPELVKPGASVKISCKASGYSFTDYFMNWVKQSHGKSLEWIGRINPYNGDSFYNQNFRGSVTLTVDKSSGTAHMELLSLTSEDSTVYYCGAYRYDGYAMDYWGQGTSVTVSS VL: DVVMTQTPLSLPVSLGDQASISCRSSQSLVHSDGNTYLHWYLQKPGQSPKLLIYKVSNRFSGVPDRFSGSGSGTDFTLKISRVEAEDLGVYFCSQSTHVPFTFGSGTKLEIK | 3.05 | 3.09 | 3.43 | no binding |
